Measured values: patent US20200247894A1 (Regeneron, published 2020)
Positions count from the first letter of the chain named. Each block holds one binder with its values, some of them ahead of it.

Key:
[1] = target: T1, Macaca fascicularis IL2Rγ extracellular domain expressed with a C-terminal myc-myc-hexahistidine tag (Macaca fascicularis); assay: SPR Biacore 4000, mAb captured by anti-hFc, 37C, dissociation in PBS-T pH 6.0
T1 construct: also called mfIL-2Rg-MMH; mfIL-2RG-MMH
T1 chain: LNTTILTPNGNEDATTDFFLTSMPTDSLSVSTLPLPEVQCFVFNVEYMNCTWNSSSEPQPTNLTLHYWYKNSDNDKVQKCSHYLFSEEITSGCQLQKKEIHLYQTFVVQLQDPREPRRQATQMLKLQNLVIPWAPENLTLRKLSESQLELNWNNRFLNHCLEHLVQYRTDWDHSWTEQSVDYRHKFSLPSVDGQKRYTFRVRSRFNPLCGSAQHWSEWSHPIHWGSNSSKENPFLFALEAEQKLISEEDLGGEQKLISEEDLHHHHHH
How it was run: (§1)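 Biacore 4000 SPR; anti-IL2Rγ mAbs (human IgG4 Fc) captured on anti-human Fc CM5 surface, IL2Rγ-MMH flowed over. Dissociation followed 6 min in PBS-T pH 7.4 or pH 6.0 at 25° C or 37° C; kd from 1:1 model fit of sensorgrams.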

[2] = target: T2, Human IL2Rγ extracellular domain expressed with a C-terminal myc-myc-hexahistidine tag (human); assay: SPR Biacore 4000, mAb captured by anti-hFc, HBS-ET, 25C; 25 C
T2 construct: also called hIL-2Rg-MMH; hIL-2RG-MMH
T2 chain: T1 chain with A14T, T16A, S22T, R141H, S228T
Method: (§2) Equilibrium dissociation constants (KD values) for IL-2Rγ binding to purified anti-IL2Rγ monoclonal antibodies were determined using a Biacore 4000 instrument equipped with a real-time surface plasmon resonance biosensor. All binding studies were performed in 10 mM HEPES, 150 mM NaCl, 3 mM EDTA, and 0.05% v/v Surfactant Tween-20, pH 7.4 (HBS-ET) running buffer at 25° C. and 37° C. The Biacore sensor surface was first derivatized by amine coupling with a monoclonal mouse anti-human Fc antibody (GE, # BR-1008-39) to capture anti-IL2Rγ monoclonal antibodies.
(§3) The dissociation of monoclonal antibody bound IL2Rγ reagents were monitored for 8-10 minutes in HBS-ET running buffer. Kinetic association (kₐ) and dissociation (kd) rate constants were determined by fitting the real-time sensorgrams to a 1:1 binding model using Scrubber 2.0c curve fitting software. Binding dissociation equilibrium constants (KD) and dissociative half-lives (t_{1/2}) were calculated from the kinetic rate constants as: […]

[3] = target: T1, Macaca fascicularis IL2Rγ extracellular …; assay: SPR Biacore 4000, mAb captured by anti-hFc, HBS-ET, 25C
How it was run: (§4)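 Surface plasmon resonance with anti-hFc-captured antibodies in pH 7.4 HEPES-buffered saline containing EDTA and Tween-20; kinetic constants from a 1:1 model.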

[4] = target: T1, Macaca fascicularis IL2Rγ extracellular …; assay: SPR Biacore 4000, mAb captured by anti-hFc, 37C, dissociation in PBS-T pH 7.4
How it was run: as §1

[5] = target: T3, Rat IL2Rγ extracellular domain expressed with a C-terminal myc-myc-hexahistidine tag (rat); assay: SPR Biacore 4000, anti-hFc-captured mAb, 25 C
T3 construct: whole entry is the tagged construct; also called rIL-2Rg-MMH; rat IL-2Rg-MMH
T3 chain: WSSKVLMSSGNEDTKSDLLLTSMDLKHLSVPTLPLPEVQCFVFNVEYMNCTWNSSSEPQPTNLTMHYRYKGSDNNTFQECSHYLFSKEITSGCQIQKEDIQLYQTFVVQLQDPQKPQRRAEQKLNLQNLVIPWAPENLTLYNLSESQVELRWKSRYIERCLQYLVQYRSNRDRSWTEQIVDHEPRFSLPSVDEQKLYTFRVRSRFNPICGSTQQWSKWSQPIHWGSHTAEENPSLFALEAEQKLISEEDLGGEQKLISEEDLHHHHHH
How it was run: as §4

[6] = target: T4, Mouse IL2Rγ extracellular domain expressed with a C-terminal myc-myc-hexahistidine tag (mouse); assay: SPR Biacore 4000, anti-hFc-captured mAb, 25 C
T4 construct: whole entry is the tagged construct; also called mIL-2Rg-MMH
T4 chain: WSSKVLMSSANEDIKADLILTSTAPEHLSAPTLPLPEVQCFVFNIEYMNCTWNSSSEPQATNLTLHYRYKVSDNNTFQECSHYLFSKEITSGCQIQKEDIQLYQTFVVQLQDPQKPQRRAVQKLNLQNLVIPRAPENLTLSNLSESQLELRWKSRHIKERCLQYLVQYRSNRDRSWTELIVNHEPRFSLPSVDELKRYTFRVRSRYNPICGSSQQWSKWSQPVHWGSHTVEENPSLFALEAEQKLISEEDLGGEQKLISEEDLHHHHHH
How it was run: as §4

[7] = target: T5, Human IL2Rγ extracellular domain expressed with a C-terminal mouse IgG2a Fc tag (human); assay: SPR Biacore 4000, anti-hFc-captured mAb, 25 C
T5 construct: whole entry is the Fc-fused construct; also called hIL-2Rg-mFc
T5 chain: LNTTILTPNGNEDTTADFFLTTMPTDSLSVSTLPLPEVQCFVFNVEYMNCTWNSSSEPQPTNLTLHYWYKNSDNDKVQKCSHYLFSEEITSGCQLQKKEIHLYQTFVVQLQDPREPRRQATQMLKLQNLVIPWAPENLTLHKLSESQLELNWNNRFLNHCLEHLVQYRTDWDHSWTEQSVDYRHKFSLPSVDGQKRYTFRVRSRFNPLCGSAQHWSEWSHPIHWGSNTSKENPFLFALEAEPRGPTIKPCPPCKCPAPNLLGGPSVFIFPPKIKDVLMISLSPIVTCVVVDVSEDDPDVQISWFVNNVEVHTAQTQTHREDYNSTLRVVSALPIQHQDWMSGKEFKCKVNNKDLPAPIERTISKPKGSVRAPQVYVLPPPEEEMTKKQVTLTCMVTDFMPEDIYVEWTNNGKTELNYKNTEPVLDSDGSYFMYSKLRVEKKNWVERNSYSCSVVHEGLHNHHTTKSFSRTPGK
How it was run: as §4

[8] = target: T3, Rat IL2Rγ extracellular domain …; assay: SPR Biacore 4000, anti-hFc-captured mAb, 37 C
How it was run: as §4

[9] = target: T4, Mouse IL2Rγ extracellular domain …; assay: SPR Biacore 4000, anti-hFc-captured mAb, 37 C
How it was run: as §4

[10] = target: T5, Human IL2Rγ extracellular domain …; assay: SPR Biacore 4000, anti-hFc-captured mAb, 37 C
How it was run: as §4

[11] = target: T6, Macaca fascicularis IL2Rγ extracellular domain expressed with a C-terminal myc-myc-hexahistidine tag (Macaca fascicularis); assay: SPR Biacore 4000, anti-hFc-captured mAb, 37 C
T6 construct: whole entry is the tagged construct; also called mfIL-2Rg-MMH
T6 chain: T1 chain
How it was run: as §4

[12] = target: T5, Human IL2Rγ extracellular domain …; assay: SPR Biacore 4000, anti-hFc-captured mAb, 37 C; no dissociation observed, kd manually fixed at 1.00E-05
[13] = target: T5, Human IL2Rγ extracellular domain …; assay: SPR Biacore 4000, anti-hFc-captured mAb, 37 C; computed with kd fixed at 1.00E-05
Method: as §2, §3

- 100 nM Ag Bound (RU) [1]: 22 RU
- koff [1]: 0.0129 s⁻¹
- t1/2 [1]: 0.9 min
- Kd [2]: 96.5 nM
- koff [2]: 0.00555 s⁻¹
- kon [2]: 57500 M⁻¹ s⁻¹
- t1/2 [2]: 2.1 min
- 100 nM Ag Bound [3]: 12 RU
- Kd [3]: 238 nM
- koff [3]: 0.00686 s⁻¹
- kon [3]: 28800 M⁻¹ s⁻¹
- t1/2 [3]: 1.7 min
- 100 nM Ag Bound (RU) [4]: 27 RU
- koff [4]: 0.00596 s⁻¹
- t1/2 [4]: 1.9 min
B1: H4H12927P2 (antibody, human IgG4 S228P, kappa, V domains shown)
VH: EVQLVESGGGVVRPGGSLRLSCATSGFTFDDYGMSWVRQVPGKGLEWVSSVNRNGGTTDYADSVKGRFTISRDNAKRSLFLQMNSLRAEDTALYHCATGELFFDYWGQGTLVTVSS
VL: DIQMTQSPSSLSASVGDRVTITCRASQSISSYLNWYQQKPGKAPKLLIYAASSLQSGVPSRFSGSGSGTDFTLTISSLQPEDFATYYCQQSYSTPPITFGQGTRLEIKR
notes: anti-IL2Rγ monoclonal antibody expressed with human IgG4 Fc

- 100 nM Ag Bound [5]: 1 RU
- binding result [5]: no binding (tested: 100 nM)
- 100 nM Ag Bound [6]: 1 RU
- binding result [6]: no binding (tested: 100 nM)
- 50 nM Ag Bound [7]: 15 RU
- Kd [7]: 4.18 nM
- koff [7]: 8.35e-05 s⁻¹
- kon [7]: 20000 M⁻¹ s⁻¹
- t1/2 [7]: 138 min
- 100 nM Ag Bound [8]: 3 RU
- 100 nM Ag Bound [9]: 0 RU
- 50 nM Ag Bound [10]: 14 RU
- kon [10]: 33000 M⁻¹ s⁻¹
- 100 nM Ag Bound [11]: 43 RU
- Kd [11]: 12.4 nM
- koff [11]: 0.00116 s⁻¹
- kon [11]: 93300 M⁻¹ s⁻¹
- t1/2 [11]: 10 min
- koff [12]: ≤ 1e-05 s⁻¹
- Kd [13]: ≤ 0.303 nM
- t1/2 [13]: ≥ 1160 min
B2: H4H12874P (antibody, human IgG4 S228P, kappa, V domains shown)
VH: QVQLVESGGGVVQPGRSLRLSCAASGFNFRNFGMHWVRQAPGKGLEWVAGILYDGSSKYYADSVKDRFTISRDNSKNTLFLQMNSLRAEDTAMYYCAKEEDTAMVPFDSWGPGTLVTVSS
VL: DIQLTQSPSFLSASVGDRVTITCWASQGISSYLAWYQQKPGKAPTLLIYAASTLQSGVPSRFSGSGSGTEFTLTISSLQPEDFASYYCQQLKSYPLTFGGGTKVEIKR
notes: fully human anti-IL2Rgamma mAb, human IgG4 Fc

- 100 nM Ag Bound [5]: 1 RU
- binding result [5]: no binding (tested: 100 nM)
- 100 nM Ag Bound [6]: 1 RU
- binding result [6]: no binding (tested: 100 nM)
- 50 nM Ag Bound [7]: 69 RU
- Kd [7]: 0.0447 nM
- koff [7]: 1.55e-05 s⁻¹
- kon [7]: 347000 M⁻¹ s⁻¹
- t1/2 [7]: 746 min
- 100 nM Ag Bound [8]: 2 RU
- 100 nM Ag Bound [9]: 0 RU
- 50 nM Ag Bound [10]: 39 RU
- kon [10]: 238000 M⁻¹ s⁻¹
- 100 nM Ag Bound [11]: 29 RU
- Kd [11]: 4.63 nM
- koff [11]: 0.00171 s⁻¹
- kon [11]: 369000 M⁻¹ s⁻¹
- t1/2 [11]: 7 min
- koff [12]: ≤ 1e-05 s⁻¹
- Kd [13]: ≤ 0.042 nM
- t1/2 [13]: ≥ 1160 min
B3: H4H12889P (antibody, human IgG4 S228P, kappa, V domains shown)
VH: EVQLVESGGGLVQPGGSLRLSCAASGFIFSSYEMHWVRQAPGKGLEWISYISSSGTTIYYADSVKGRFTISRDNAKNSLYLHMNSLRAEDTAVYYCTRARITGTFDVFDIWGQGTMVTVSS
VL: DIQMTQSPSSLSASVGDRVTITCRASQSISSYLNWYQQKPGKAPKLLIFAASNLQSGVPSRFSGSRSGTDFTLTISSLQPEDFATYYCQQNYNIPYTFGQGTKLEIKR
notes: fully human anti-IL2Rgamma mAb, human IgG4 Fc; also called REGN7257

- 100 nM Ag Bound (RU) [1]: 20 RU
- koff [1]: 0.0303 s⁻¹
- t1/2 [1]: 0.4 min
- Kd [2]: 132 nM
- koff [2]: 0.0264 s⁻¹
- kon [2]: 200000 M⁻¹ s⁻¹
- t1/2 [2]: 0.4 min
- 100 nM Ag Bound [3]: 11 RU
- Kd [3]: 107 nM
- koff [3]: 0.0261 s⁻¹
- kon [3]: 244000 M⁻¹ s⁻¹
- t1/2 [3]: 0.4 min
- 100 nM Ag Bound (RU) [4]: 25 RU
- koff [4]: 0.0279 s⁻¹
- t1/2 [4]: 0.4 min
B4: H4H12926P2 (antibody, human IgG4 S228P, kappa, V domains shown)
VH: QVQLQQSGPGLVKPSQTLSLTCAISGDSVSSNIAAWNWIRLSPSRGLEWLGRTFFRSTWFYDYSLSVKGRITINPDTSKNQFSLHLNSVTPEDAAVYYCARTGRRWSLDYWGQGTLVTVSS
VL: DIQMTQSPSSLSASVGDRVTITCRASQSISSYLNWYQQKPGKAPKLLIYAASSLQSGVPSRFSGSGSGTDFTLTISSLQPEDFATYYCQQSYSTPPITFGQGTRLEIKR
notes: as for B1

- 100 nM Ag Bound [5]: 1 RU
- binding result [5]: no binding (tested: 100 nM)
- 100 nM Ag Bound [6]: 2 RU
- binding result [6]: no binding (tested: 100 nM)
- 50 nM Ag Bound [7]: 115 RU
- Kd [7]: 0.0853 nM
- koff [7]: 3.41e-05 s⁻¹
- kon [7]: 399000 M⁻¹ s⁻¹
- t1/2 [7]: 339 min
- 100 nM Ag Bound [8]: 0 RU
- 100 nM Ag Bound [9]: 0 RU
- 50 nM Ag Bound [10]: 93 RU
- kon [10]: 537000 M⁻¹ s⁻¹
- 100 nM Ag Bound [11]: 63 RU
- Kd [11]: 5.51 nM
- koff [11]: 0.00147 s⁻¹
- kon [11]: 266000 M⁻¹ s⁻¹
- t1/2 [11]: 8 min
- koff [12]: ≤ 1e-05 s⁻¹
- Kd [13]: ≤ 0.0186 nM
- t1/2 [13]: ≥ 1160 min
B5: H4H12863P (antibody, human IgG4 S228P, kappa, V domains shown)
VH: QVQLVESGGGVVQPGRSLRLSCTASGFTFRSYDMYWVRQAPGKGLEWVSVITYDGNNKYYADSVKGRFTISRDNSKNTLFLQMSSLRPEDTAVYYCAKRGLIWVGESFDYWGQGTLVTVSS
VL: DIQMTQSPSTLSASVGDRVTITCRASQSINSWLAWYQQKPGKAPNLLIYKASSLESGVPSRFSGSGSGTEFTLTISSLQPDDFATYYCQQYKSYSWTFGQGTKVEIKR
notes: as for B2
